Test [1] concerns the target human BLyS (full length, arginine to histidine at position 132) on CHO-K1 cells (human) (UniProt Q9Y275). Put plainly: flow cytometry, CHO-K1 hBLyS cells, antibody 66.7 nM. For orientation: In flow cytometry, cells or beads pass a laser one at a time.
Test [2] shares this target. The test is described as follows: flow cytometry, CHO-K1 hBLyS cells, antibody 0.534 nM.
Test [3] has as its target cynomolgus BLyS (full length, arginine to histidine at position 132) on CHO-K1 cells (cynomolgus). The test is described as follows: flow cytometry, CHO-K1 cynoBLyS cells, antibody 0.534 nM.
For test [4] the target is unchanged. The test is described as follows: flow cytometry, CHO-K1 cynoBLyS cells, antibody 0.0213 nM.
The target of test [5] is biotinylated hBLyS-ECD (human) (UniProt Q9Y275). The test is described as follows: blocking ELISA: biotinylated hBLyS-ECD on coated BAFF R, antibody 4 nM.
Chain of biotinylated hBLyS-ECD (human) (Q9Y275 134-285): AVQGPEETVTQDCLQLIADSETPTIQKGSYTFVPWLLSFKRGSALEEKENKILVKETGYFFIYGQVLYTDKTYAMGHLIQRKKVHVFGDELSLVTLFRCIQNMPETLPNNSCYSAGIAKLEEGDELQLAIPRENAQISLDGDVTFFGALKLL
Test [6] has the same target. The test is described as follows: blocking ELISA: biotinylated hBLyS-ECD on coated BAFF R, antibody 20 nM. (In general: An ELISA detects its analyte on a solid surface through an enzyme-linked reagent.)
Test [7] has the same target. Put plainly: blocking ELISA: biotinylated hBLyS-ECD on coated BAFF R, antibody 100 nM.
The target is the same in test [8]. Put plainly: blocking ELISA: biotinylated hBLyS-ECD on coated BAFF R, antibody 0.00128 nM.
The target in test [9] is extracellular domain of human BLyS protein (hBLyS-ECD), His-tagged, Ala134-Leu285 (human, UniProt Q9Y275 134-285). Put plainly: cell-based or functional assay.
Chain of extracellular domain of human BLyS protein (hBLyS-ECD), His-tagged, Ala134-Leu285 (Q9Y275 134-285): as above
Test [10] concerns the target T1, biotinylated hBLyS-ECD (human, UniProt Q9Y275 134-285, biotinylated with Biotin-X-X-NHS (molar ratio 7:1); sites not stated).
T1 construct: also called biotinylated immunogen; biotinylated hBLvS-ECD
The test is described as follows: ELISA on captured biotinylated hBLyS-ECD; antibody 66.7 nM.

Test [11] addresses T1, biotinylated hBLyS-ECD. Put plainly: ELISA on captured biotinylated hBLyS-ECD; antibody 0.107 nM.
The target of test [12] is T1, biotinylated hBLyS-ECD. The test is described as follows: ELISA on captured biotinylated hBLyS-ECD; antibody 0.534 nM.
For test [13], the target named is T1, biotinylated hBLyS-ECD. Put plainly: ELISA on captured biotinylated hBLyS-ECD; antibody 0.00427 nM.
Test [14] deals with T1, biotinylated hBLyS-ECD. The test is described as above. The source holds these as a separate data set.
Test [15] concerns the target T1, biotinylated hBLyS-ECD. The test is described as follows: ELISA on captured biotinylated hBLyS-ECD; antibody 0 nM (background).
Test [16] concerns the target T1, biotinylated hBLyS-ECD. The test is described as follows: BAFF R-coated ELISA, biotinylated hBLyS-ECD bound in presence of antibody 100 nM.
In test [17] the target is T1, biotinylated hBLyS-ECD. The test is described as follows: BAFF R-coated ELISA, biotinylated hBLyS-ECD bound in presence of antibody 0.16 nM.
The target in test [18] is T2, biotinylated hBLyS-ECD (human, UniProt Q9Y275 134-285, biotinylated with Biotin-X-X-NHS (molar ratio 7:1), sites not stated).
T2 construct: The hBLyS-ECD of Embodiment 1 after biotinylation (Embodiment 2); also called biotinylated immunogen; BLyS protein; not shown: His tag of the pCPC vector
T2 sequence (Q9Y275 134-285): as above
Put plainly: ELISA: biotinylated hBLyS-ECD captured on streptavidin, antibody titrated, HRP secondary antibody [label printed at the top of D00004]. The method, then:
Streptavidin was first diluted to a final concentration of 1.0 μg/mL with PBS, and then 50 μL of diluted streptavidin per well was aliquoted into 96-well ELISA plate, which was subsequently sealed with plastic film and incubated at 4° C. overnight. On the next day the plate was washed four times with the plate washing buffer [PBS buffer containing 0.05% (v/v) Tween20] and added with the blocking solution [PBS buffer containing 0.05% (v/v) Tween20 and 1% (w/w) BSA] and blocked for 2 hours at 37° C. The blocking solution was removed, the biotinylated hBLyS-ECD prepared in Embodiment 2 was diluted with PBS to a final concentration of 50 ng/mL and then aliquoted into the 96-well ELISA plate at 50 μL per well and incubated for 1 hour at 37° C. After rinsing the plate four times with the plate washing buffer [PBS buffer containing 0.05% (v/v) Tween20], 100 μl of the purified lead antibody harvested in Embodiment 1 and 2 was pipetted into each well. After incubation for 1 hour at 37° C., the plate was rinsed four times with the plate washing buffer [PBS buffer containing 0.05% (v/v) Tween20]. HRP-labeled (horseradish peroxidase) secondary antibody (purchased from Sigma) was added in and incubated at 37° C. for 1 hour. The plate was then rinsed four times with the plate washing buffer [PBS buffer containing 0.05% (v/v) Tween20]. 100 μL of TMB substrate was aliquoted into each well and after incubation for 5 minutes at room temperature, 100 μL of stop solution (1.0 N HCl) was aliquoted into each well. A₄₅₀ₙₘ values were read via an ELISA plate reader (SpectraMax M5e purchased from Molecular Devices) and the results were shown in FIGS. 5A-5B and Table 10.

A word on the EC50 (read off the curve): it is the concentration giving half of the maximal effect.

T1 sequence (Q9Y275 134-285): as above
Chain of human BLyS (full length, arginine to histidine at position 132) on CHO-K1 cells (human) (Q9Y275 whole entry R130H): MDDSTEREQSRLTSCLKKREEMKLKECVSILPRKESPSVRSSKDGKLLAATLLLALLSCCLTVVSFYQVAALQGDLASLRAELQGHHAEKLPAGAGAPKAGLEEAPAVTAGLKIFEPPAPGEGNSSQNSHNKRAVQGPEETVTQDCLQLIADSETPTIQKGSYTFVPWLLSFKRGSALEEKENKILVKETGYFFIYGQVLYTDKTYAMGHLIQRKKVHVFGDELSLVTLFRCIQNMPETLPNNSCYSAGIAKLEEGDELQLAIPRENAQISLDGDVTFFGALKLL
Chain of cynomolgus BLyS (full length, arginine to histidine at position 132) on CHO-K1 cells (cynomolgus) (Q9Y275 other isoform, or with tags, fused parts or gaps limits assumed): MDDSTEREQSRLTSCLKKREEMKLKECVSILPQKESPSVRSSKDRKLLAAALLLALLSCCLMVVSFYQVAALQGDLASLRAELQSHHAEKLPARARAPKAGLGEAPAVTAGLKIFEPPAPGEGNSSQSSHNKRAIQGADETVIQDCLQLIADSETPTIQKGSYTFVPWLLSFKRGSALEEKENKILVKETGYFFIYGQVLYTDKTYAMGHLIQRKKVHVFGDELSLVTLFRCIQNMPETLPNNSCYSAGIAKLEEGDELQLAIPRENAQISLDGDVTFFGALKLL

Regarding hIgG Control (antibody), the MFI in test [1] came out at 52 MFI; in test [2], 33.4 MFI; in test [3], 22.6 MFI; in test [4], 22.4 MFI. The OD450 nm in [5] worked out at 1.09 OD450 nm; in test [6], 1.06 OD450 nm; in test [7], 1.22 OD450 nm; in test [8], 1.13 OD450 nm.
With mIgG Control (antibody), the MFI in test [1] amounted to 33.6 MFI; in test [2], 30.7 MFI; in [3], 20 MFI; in [4], 19.8 MFI. Further, the OD450 nm was 1.41 OD450 nm in test [5], 1.36 OD450 nm in test [6], 1.3 OD450 nm in test [7] and 1.42 OD450 nm in [8].

B1: c8E7D9C7F5 (antibody, V domains shown)
VH: QVQLQQSGVELARPGASVKLSCKASGYTFTSYGISWVKQRTGQALEWIGEIYPRSGNTYYNEKFKGKATLTADKSSSTAYMELRSLTSEDSAVYFCARSGPITTLVATDYGMDYWGQGTSVTVSS
VL: DIVLTQSPASLAVSLGQRATISCRASKSVSTSSYSYMHWYQQKPGQPPKLLIKFASNLESGVPARFSGSGSGTDFTLNIHPVEEEDAATYYCQHSREFPYTFGGGTKLEIK
notes: also called chimeric antibody c8E7D9C7F5
As to B1, in test [9], the “OD450 nm (as headed), mouse B lymphocyte proliferation; antibody 0 nM” value came to 4750; the “OD450 nm (as headed), mouse B lymphocyte proliferation; antibody 0.000256 nM” value worked out at 4970; the “OD450 nm (as headed), mouse B lymphocyte proliferation; antibody 0.00128 nM” value is 5150; the “OD450 nm (as headed), mouse B lymphocyte proliferation; antibody 0.0064 nM” value amounted to 5280. In test [9], the “OD450 nm (as headed), mouse B lymphocyte proliferation; antibody 0.032 nM” value came to 4620; the “OD450 nm (as headed), mouse B lymphocyte proliferation; antibody 0.16 nM” value stood at 4110; the “OD450 nm (as headed), mouse B lymphocyte proliferation; antibody 0.8 nM” value came to 2070; the “OD450 nm (as headed), mouse B lymphocyte proliferation; antibody 4 nM” value came to 488. Moreover, in test [9], the “OD450 nm (as headed), mouse B lymphocyte proliferation; antibody 20 nM” value came to 367 and the “OD450 nm (as headed), mouse B lymphocyte proliferation; antibody 100 nM” value is 345. Besides, the OD450 nm in the test with biotinylated hBLyS-ECD [10] came to 3.31 OD450 nm. Besides, in the test with biotinylated hBLyS-ECD [11], the OD450 nm was 1.7 OD450 nm. The OD450 nm with biotinylated hBLyS-ECD [12] was determined as 1.97 OD450 nm. The OD450 nm with biotinylated hBLyS-ECD [13] worked out at 0.176 OD450 nm. In the test with biotinylated hBLyS-ECD [14], the OD450 nm amounted to 0.198 OD450 nm. For the same molecule, in the test with biotinylated hBLyS-ECD [15], the OD450 nm came to 0.322 OD450 nm. Besides, the OD450 nm with biotinylated hBLyS-ECD [16] is 0.53 OD450 nm. Besides, the OD450 nm with biotinylated hBLyS-ECD [17] stood at 1.85 OD450 nm.

B2: 111D10D6G3 (antibody, V domains shown)
VH: QVQLQQPGAELVKPGASVKMSCKASGYTFTRHWITWVKQRPGQGLEWIGDIFPGSGSINYNEKFKSEATLTVEKSSSTAYMQLSSLTSEDSAVYYCARGDVDVWGTGTTVTVSS
VL: DIQMTQSPSSLSASLGERVSLTCRASQEIRGYLSWLQQKPNGTIKRLIYAASTLDSGVPKRFSATRSGSDFSLTISSLESEDFADYYCLQYASYPFTFGSGTKLEIK
notes: Mouse hybridoma antibody purified on Protein G
For B2, in the test with biotinylated hBLyS-ECD [18], the “EC50 (read off the curve)” value was roughly 0.2 nM.

B3: c97A3C2H4 (antibody, V domains shown)
VH: EVKLVESGGGLVQPGGSLKLSCAASGFTFSTYTMSWVRQTPEKRLEWVAYISYGGGSTSYPDTVKGRFTISRDNAKNTLYLQMSSLKSEDTAIYYCTRHVTVVENSMDYWGQGTSVTVSS
VL: DILLTQSPDILSVSPGERVSFSCRASQSIGTSIHWYQQRTNGSPRLLIKYVSESFSGTPSRFSGSGSGTAFTLTINSVESEDIADYYCQQTHSWPWTFGGGTKLEIK
notes: also called chimeric antibody c97A3C2H4
For B3, in test [9], the “OD450 nm (as headed), mouse B lymphocyte proliferation; antibody 0 nM” value was determined as 4440; the “OD450 nm (as headed), mouse B lymphocyte proliferation; antibody 0.000256 nM” value was 5020; the “OD450 nm (as headed), mouse B lymphocyte proliferation; antibody 0.00128 nM” value was 4870; the “OD450 nm (as headed), mouse B lymphocyte proliferation; antibody 0.0064 nM” value came to 5280. In [9], the “OD450 nm (as headed), mouse B lymphocyte proliferation; antibody 0.032 nM” value was 4450; the “OD450 nm (as headed), mouse B lymphocyte proliferation; antibody 0.16 nM” value amounted to 3740; the “OD450 nm (as headed), mouse B lymphocyte proliferation; antibody 0.8 nM” value was 1460; the “OD450 nm (as headed), mouse B lymphocyte proliferation; antibody 4 nM” value was 578. Moreover, in [9], the “OD450 nm (as headed), mouse B lymphocyte proliferation; antibody 20 nM” value amounted to 424 and the “OD450 nm (as headed), mouse B lymphocyte proliferation; antibody 100 nM” value is 444. Also, the OD450 nm in the test with biotinylated hBLyS-ECD [10] was found to be 3.3 OD450 nm. Moreover, the OD450 nm in the test with biotinylated hBLyS-ECD [11] stood at 2.35 OD450 nm. In the test with biotinylated hBLyS-ECD [12], the OD450 nm is 1.91 OD450 nm. The OD450 nm in the test with biotinylated hBLyS-ECD [13] turned out to be 0.25 OD450 nm. The OD450 nm in the test with biotinylated hBLyS-ECD [14] amounted to 0.194 OD450 nm. Besides, the OD450 nm in the test with biotinylated hBLyS-ECD [15] was found to be 0.165 OD450 nm. For the same molecule, the OD450 nm in the test with biotinylated hBLyS-ECD [16] is 0.474 OD450 nm. Further, the OD450 nm with biotinylated hBLyS-ECD [17] amounted to 1.79 OD450 nm.

B4: 97A3C2H4 (antibody, V domains shown)
VH: EVKLVESGGGLVQPGGSLKLSCAASGFTFSTYTMSWVRQTPEKRLEWVAYISYGGGSTSYPDTVKGRFTISRDNAKNTLYLQMSSLKSEDTAIYYCTRHVTVVENSMDYWGQGTSVTVSS
VL: DILLTQSPDILSVSPGERVSFSCRASQSIGTSIHWYQQRTNGSPRLLIKYVSESFSGTPSRFSGSGSGTAFTLTINSVESEDIADYYCQQTHSWPWTFGGGTKLEIK
notes: as for B2
For B4, the concentration for a half-maximal effect (EC50 (read off the curve)) in the test with biotinylated hBLyS-ECD [18] is roughly 0.2 nM.
